Measurements: publication PMC9993113, “Assay development and inhibition of the Mt-DprE2 essential reductase from Mycobacterium tuberculosis” (Microbiology, 2023)

What was measured:
Mt-DprE1 = target: T1, Mt-DprE1 (Mycobacterium tuberculosis, UniProt P9WJF1); assay: resazurin-based DprE1 enzyme assay with GGPR substrate; type: biochemical
T1 construct: N-terminal hexa-his tag

[1] = system: CC(C)=CCC/C(C)=C/CC/C(C)=C/CC/C(C)=C/COP(=O)(O)O[C@@H]1O[C@H](CO)[C@@H](O)[C@H]1O; assay: purified protein; conditions: FAD
[2] = system: NC(=O)C1=CN([C@@H]2O[C@H](COP(=O)(O)OP(=O)(O)OC[C@H]3O[C@@H](n4cnc5c(N)ncnc54)[C@H](OP(=O)(O)O)[C@@H]3O)[C@@H](O)[C@H]2O)C=CC1; assay: purified protein; conditions: varied: cofactor
[3] = system: NC(=O)C1=CN([C@@H]2O[C@H](COP(=O)(O)OP(=O)(O)OC[C@H]3O[C@@H](n4cnc5c(N)ncnc54)[C@H](O)[C@@H]3O)[C@@H](O)[C@H]2O)C=CC1; assay: purified protein; conditions: varied: cofactor

T1 sequence (P9WJF1 whole entry): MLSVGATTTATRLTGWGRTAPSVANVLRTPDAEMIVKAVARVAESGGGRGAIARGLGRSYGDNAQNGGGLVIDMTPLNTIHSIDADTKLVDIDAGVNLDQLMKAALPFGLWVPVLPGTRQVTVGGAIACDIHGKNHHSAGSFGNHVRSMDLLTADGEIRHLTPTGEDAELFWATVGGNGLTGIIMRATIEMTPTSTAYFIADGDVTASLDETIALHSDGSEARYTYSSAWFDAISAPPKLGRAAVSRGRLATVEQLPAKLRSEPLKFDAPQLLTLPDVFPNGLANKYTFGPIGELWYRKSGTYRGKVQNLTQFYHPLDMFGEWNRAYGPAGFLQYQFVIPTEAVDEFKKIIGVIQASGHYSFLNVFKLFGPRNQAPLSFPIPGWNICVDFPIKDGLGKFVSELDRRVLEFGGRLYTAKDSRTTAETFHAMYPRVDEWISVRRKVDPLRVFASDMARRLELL

BTZ showed an IC50 (Mt-DprE1) of 5.7 ± 0.5 µM.

“Mt-DprE1 (Mycobacterium tuberculosis H37Rv)” was tested, and the Km [1] was 36.9 ± 0.7 µM and the Vmax [1] was 35.8 µM/min.

Work on “Mt-DprE2 (Mycobacterium tuberculosis H37Rv)” yielded a Km [2] of 34.6 ± 11.2 µM, a Vmax [2] of 11.2 µM/min and a Km [3] of 10.5 ± 5.6 µM. It also gave a Vmax [3] of 14.3 µM/min.
